Consider 4 molecules from patent US20250144229A1, “CONJUGATE OF ANTIBODY-ERIBULIN OR DERIVATIVE THEREOF, INTERMEDIATE THEREOF, PREPARATION METHOD THEREFOR, PHARMACEUTICAL COMPOSITION THEREOF AND USE THEREOF” (MEDLINK THERAPEUTICS (SUZHOU) CO., LTD., priority 2022, published 2025).

Usually IC50 stands for the concentration needed to halve the response being measured. The term EC50 denotes the concentration giving half of the maximal effect.

Where “and” joins values, the source holds several entries; their conditions need not be identical. Equal entries are not always repeated. Structures can show the parent of a compound that is named as a salt. Where two headings read alike, the source gives them in different places.

For data set [1] the following is noted: cited from earlier work.
Another data set relates to A375. Briefly: Inhibitory activity of ADC on cell viability in vitro (CCK8), A375. It counts as cell-based. The conditions noted are these: Homo sapiens, A-375, 168 h, 7 days incubation. Here is the method: (§1) HT29, NCI-H358 (HT29 and NCI-H358 are B7H3 positive tumor cells), SW480, A375, A549, and Calu-3 (Calu-3 is B7H3 negative tumor cells) tumor cells were digested by trypsin using conventional methods. Cells in the tube were collected and counted, then resuspended in the corresponding assay medium (containing 2% FBS), and added to a 96-well plate at 2000 to 5000 cells/well. 100 μL of ADC diluted in 2% FBS medium was added to the 96-well plate, with 3-fold serial dilution at an initial concentration of 150 µg/mL (12 concentration gradients). The plate was incubated at 37° C. under 5% CO2 for 7 days. 20 μL of CCK8 reagent was then added to each well, and the reaction was carried out for 2 to 6 hours. The plate was read on a microplate reader (detection wavelength: 450 nm). The test results are shown in Table 3-1, Table 3-2, and FIGS. 7A to 7E.

For another data set, the system named is SW480. Briefly: Inhibitory activity of ADC on cell viability in vitro (CCK8), SW480. The class given is cell-based. The conditions noted are these: Homo sapiens, SW480, 168 h, 7 days incubation. On the procedure:
as §1

In another data set the test system is HT29. As to the kind of experiment: Inhibitory activity of ADC on cell viability in vitro (CCK8), HT29. To be noted: Homo sapiens, HT-29, 168 h, 7 days incubation, B7H3 positive tumor cells. It counts as cell-based. Here is the method:
as §1

In another data set the test system is A549. As to the kind of experiment: Inhibitory activity of ADC on cell viability in vitro (CCK8), A549. It counts as cell-based. To be noted: Homo sapiens, A549, 168 h, 7 days incubation. On the procedure: as §1
A further data set has as its system PC-3 tumor cells. As to the kind of experiment: Cell affinity assay of anti-B7H3 antibody by FACS, PC-3. It counts as binding, human. The conditions noted are these: flow cytometry. On the procedure: (§2) B7H3 protein is highly expressed in a variety of solid tumor cells. The affinity of B7H3 full human antibody to tumor cells was tested by FACS. Specific experimental procedures: MCF-7 breast cancer cells, A549 human non-small cell lung cancer cells, and PC3 human prostate cancer cells grown to logarithmic phase were digested by trypsin, and resuspended to 5*10^5 cells/mL in PBS buffer containing 2% BSA. 100 μL of cell suspension was added to a 96-well plate. […] 100 μL of antibody suspension was then added into the 96-well plate and mixed homogeneously. The plate was incubated at 4° C. for 1 hour, washed twice with pre-cooled PBS at 300 μL/well each time, and centrifuged at 500 g for 5 minutes. 1:50 fluorescent secondary antibody APC anti-human IgG or PE anti-human IgG (purchased from Biolegend) was added at 100 μL/well and mixed homogeneously. The plate was incubated at 4° C. for 0.5 hours, washed twice with pre-cooled PBS at 300 μL/well each time, centrifuged at 500 g for 5 minutes, and resuspended in 500 μL of PBS. The average fluorescence signal value was measured by Beckman flow cytometer. The EC50 value was calculated from the average fluorescence signal value.
(In general: Flow cytometry measures light scatter and fluorescence of single cells or particles in a stream.)

Another data set concerns MCF-7 tumor cells. As to the kind of experiment: Cell affinity assay of anti-B7H3 antibody by FACS, MCF-7. The class given is binding. The conditions noted are these: flow cytometry. Here is the method: as §2
In data set [2] the target is T1, human B7H3-4IgG-His protein (Homo sapiens, UniProt Q5ZPR3).
T1 construct: amino acids at positions 27 to 461 (Uniport protein No. Q5ZPR3-1) of human 4Ig B7H3; 6xHis (C); made in house; host or cells: HEK293F (transient, PTT5 vector)
T1 sequence (Q5ZPR3 27-461): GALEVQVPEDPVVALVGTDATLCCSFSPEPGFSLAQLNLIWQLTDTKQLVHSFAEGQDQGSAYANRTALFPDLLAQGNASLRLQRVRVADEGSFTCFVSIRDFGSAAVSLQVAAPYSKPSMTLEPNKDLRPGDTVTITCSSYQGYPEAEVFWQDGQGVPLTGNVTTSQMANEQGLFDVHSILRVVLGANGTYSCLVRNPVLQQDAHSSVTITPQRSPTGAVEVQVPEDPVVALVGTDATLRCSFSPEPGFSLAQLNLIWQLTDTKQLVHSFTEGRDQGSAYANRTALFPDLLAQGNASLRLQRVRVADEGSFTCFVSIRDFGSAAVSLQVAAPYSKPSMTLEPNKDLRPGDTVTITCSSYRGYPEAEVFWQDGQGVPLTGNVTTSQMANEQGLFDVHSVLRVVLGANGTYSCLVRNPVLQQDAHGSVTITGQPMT
As to the kind of experiment: ELISA protein affinity assay of anti-B7H3 antibody, human protein. The class given is binding. The conditions noted are these: coated protein. Here is the method: The plate was washed five times with PBST. […] The absorbance was measured at 450 nm.
In general terms: In an ELISA, binding on a coated surface is turned into a signal by an enzyme label.

The next data set has as its system A549 tumor cells. Briefly: Cell affinity assay of anti-B7H3 antibody by FACS, A549. The class given is binding, human. To be noted: flow cytometry; middle B7H3-expressing cells. On the procedure:
as §2

For data set [3], the target named is B7H3 protein on human tumor cells (MCF-7, A549, PC-3, HT29) (human) (UniProt Q5ZPR3). Briefly: flow cytometry on A549 tumor cells.
The target is the same in data set [4]. Briefly: flow cytometry on MCF-7 tumor cells.
Data set [5] has the same target. Briefly: flow cytometry on A549 tumor cells. The source holds these as a separate data set.
In data set [6] the target is T2, human B7H3-4IgG-His (human) (UniProt Q5ZPR3).
T2 sequence: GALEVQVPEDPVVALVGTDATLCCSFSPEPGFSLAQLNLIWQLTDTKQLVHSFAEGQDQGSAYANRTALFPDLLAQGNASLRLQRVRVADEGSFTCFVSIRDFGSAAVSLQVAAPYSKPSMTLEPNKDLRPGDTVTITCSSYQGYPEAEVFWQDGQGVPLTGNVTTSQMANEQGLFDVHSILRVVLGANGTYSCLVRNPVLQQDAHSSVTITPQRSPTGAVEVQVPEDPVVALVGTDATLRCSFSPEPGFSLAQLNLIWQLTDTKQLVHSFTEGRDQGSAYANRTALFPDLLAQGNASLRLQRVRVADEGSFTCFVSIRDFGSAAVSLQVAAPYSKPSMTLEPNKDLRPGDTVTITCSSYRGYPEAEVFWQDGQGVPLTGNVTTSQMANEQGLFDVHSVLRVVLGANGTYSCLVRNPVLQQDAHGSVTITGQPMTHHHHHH
As to the kind of experiment: ELISA, antigen coated on the plate, anti-human Fc-HRP detection.

Data set [7] deals with monkey B7H3-4IgG-His (monkey). The description is as above.
For data set [8], the target named is T2, human B7H3-4IgG-His (human). The description is as above. This is another data set of the same source.
For data set [9], the target named is monkey B7H3-4IgG-His (monkey). The description is as above. The source holds these as a separate data set.
Data set [10] deals with B7H3 protein on human tumor cells (MCF-7, A549, PC-3, HT29) (human) (UniProt Q5ZPR3). As to the kind of experiment: flow cytometry on PC-3 tumor cells.
The target is the same in data set [11]. As to the kind of experiment: flow cytometry on MCF-7 tumor cells. The source holds these as a separate data set.

B7H3 protein on human tumor cells (MCF-7, A549, PC-3, HT29) (human), sequence (Q5ZPR3 29-534): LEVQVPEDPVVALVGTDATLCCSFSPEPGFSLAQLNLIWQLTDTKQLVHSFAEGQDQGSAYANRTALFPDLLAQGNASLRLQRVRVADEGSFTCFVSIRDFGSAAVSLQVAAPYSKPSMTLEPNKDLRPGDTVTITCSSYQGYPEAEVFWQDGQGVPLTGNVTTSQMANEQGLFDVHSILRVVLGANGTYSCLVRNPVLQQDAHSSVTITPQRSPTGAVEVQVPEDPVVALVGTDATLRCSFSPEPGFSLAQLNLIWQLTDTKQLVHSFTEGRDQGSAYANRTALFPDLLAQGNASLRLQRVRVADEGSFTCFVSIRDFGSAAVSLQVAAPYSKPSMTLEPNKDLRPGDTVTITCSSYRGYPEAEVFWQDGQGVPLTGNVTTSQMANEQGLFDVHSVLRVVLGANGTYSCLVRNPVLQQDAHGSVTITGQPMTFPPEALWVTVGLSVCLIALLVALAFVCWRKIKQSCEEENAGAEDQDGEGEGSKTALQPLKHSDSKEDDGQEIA

With `C=C1C[C@@H]2CC[C@@]34C[C@H]5O[C@H]6[C@@H](O3)[C@H]3O[C@H](CC[C@@H]3O[C@H]6[C@H]5O4)CC(=O)C[C@@H]3[C@@H](OC)[C@@H](C[C@H](O)CN)O[C@H]3C[C@H]3O[C@@H](CC[C@@H]1O2)C[C@@H](C)C3=C` [Eribulin mesylate], in data set [1] (intravenous infusion on day 1, 8 and 15 of a 28-day cycle, patients), the “maximum tolerated dose (MTD)” value was 1.4 mg/m^2. Besides, the “grade 3-4 adverse events: neutropenia” value in [1] (patients treated with eribulin mesylate) is given as 64%.

With `C=C1C[C@@H]2CC[C@@]34C[C@H]5O[C@H]6[C@@H](O3)[C@H]3O[C@H](CC[C@@H]3O[C@H]6[C@H]5O4)CC(=O)C[C@@H]3[C@@H](OC)[C@@H](C[C@H](O)CN)O[C@H]3C[C@H]3O[C@@H](CC[C@@H]1O2)C[C@@H](C)C3=C` [Eribulin, eribulin], the IC50 with A375 came out at 1.14 nM; in the data set with SW480, 1.38 nM; in the data set with HT29, 0.2 nM; in the data set on A549 it was 0.31 nM.

For the molecule “B7H3-C1: anti-B7H3 antibody numbered M30-H1-L4 in CN103687945B”, the “PC-3 tumor cells Maximum MFI” value in the data set with PC-3 tumor cells worked out at 6436. Also, the EC50 is 0.618 nM with PC-3 tumor cells (low B7H3-expressing cells); 1.71 nM and 1.36 nM in the data set on MCF-7 tumor cells (high B7H3-expressing cells); 0.048 nM in [2]; 1.86 nM and 1.05 nM with A549 tumor cells. Moreover, the “MCF-7 tumor cells Maximum MFI” value in the data set with MCF-7 tumor cells is 83992 and 63194.

B1: antibody B7H3-C1 (antibody, INN chains, looked up, V domains shown)
VH: QVQLVQSGAEVKKPGSSVKVSCKASGYTFTNYVMHWVRQAPGQGLEWMGYINPYNDDVKYNEKFKGRVTITADESTSTAYMELSSLRSEDTAVYYCARWGYYGSPLYYFDYWGQGTLVTVSS
VL: EIVLTQSPATLSLSPGERATLSCRASSRLIYMHWYQQKPGQAPRPLIYATSNLASGIPARFSGSGSGTDFTLTISSLEPEDFAVYYCQQWNSNPPTFGQGTKVEIK
Take B1: the EC50 in data set [3] is 1.05 nM; in data set [4], 1.36 nM; in data set [5], 1.86 nM; in [6], 0.0519 nM; in data set [7], 3.92 nM; in [8], 0.048 nM. Also, the values for the EC50 in [9], in data set [10] and in data set [11] were 0.167 nM, 0.618 nM and 1.71 nM, respectively. The Maximum MFI in [3] is 48000; in data set [4] it was 63200; in data set [5], 8270; in data set [10], 6440; in data set [11] it was 84000.
